No end group written: not given here. *: point of attachment. Biotin = O=C1N[C@H]2[C@H](CS[C@H]2CCCCC(=O)*)N1

The record followed here is patent publication US20090111753A1, “Nogo-A Polypeptide Fragments, Variant Nogo Receptor-1 Polypeptides, and Uses Thereof” (Yale University, priority 2004, published 2009).

In one experiment the test system is E13 chick DRG neurons. Description: cDRG neurite outgrowth assay. Type of experiment: cell-based. As to the method:
FIG. 2D. Differential effects of Amino-Nogo fragments on neurite outgrowth. Dissociated neurons from E13 chick DRGs were plated on 96 well dishes coated with lpmol protein per well and stained for neurofilament localization.
FIG. 2E. Neurite length per neuron were measured and plotted as percentage of PBS control with increasing concentration of dried protein for experiment described in […].
FIG. 6C. B24/32 peptide inhibits neurite outgrowth. Dissociated neurons from E13 chick DRG were plated onto 96 well dishes coated with 500 pmol of dried peptides as indicated and stained for neurofilament localization.
FIG. 6D. Neurite length per neuron was measured and plotted as percentage of PBS control for experiments as in (C).
(§1) It has been recognized that the Amino-Nogo-A protein inhibits non-neuronal cell spreading and axonal outgrowth when the protein is substrate bound (Chen, M. S., et al., Nature 403:434-439 (2000); Fournier, A. E., et al., Nature 409:341-346 (2001)). […] The later domain has been termed Δ20. To determine whether the NgR-interacting aa of Amino-Nogo-A described in Example 1 regulate cell spreading and axonal outgrowth, various fragments were expressed as GST fusion proteins and purified from E. coli. To generate GST fusion proteins, amino Nogo fragments were cloned in pGEX2T (Amersham Pharmacia). Native and soluble GST fusion proteins were expressed and purified as described (GrandPre, T., et al., Nature 403:439-444 (2000)). COS-7 binding assays were done as described (Fournier, A. E., et al., Nature 409:341-346 (2001)). Bound AP to COS-7 cells was measured using NIH image software. Fibroblast spreading and cDRG outgrowth assay were done as described (Fournier, A. E., et al., Nature 409:341-346 (2001)) with some modifications. Briefly, 50 μl of purified GST fusion protein or peptides diluted in PBS was pipetted into polylysine precoated 96 well plates (Becton Dickson Biocoat plates) and dried overnight at room temperature. For fibroblast spreading assay, subconfluent COS-7 cells were then plated for 1 hour in serum containing medium before fixation and staining with rho damine-phalloidin.
The same GST-Amino-Nogo proteins were tested for their ability to reduce neurite outgrowth from chick E13 DRG neurons. For cDRG outgrowth assay, dissociated E13 cDRG neurons were plated for 6 hours before fixation. […] Cell area, number of attached cells and neurite length were measured using the Imageexpress machine and software (Axon Instrument).
We reasoned that fusing the 24 aa segment of Amino-Nogo-A to NEP32 antagonist peptide might create a high affinity antagonist with a potency similar to the binding of AP-B4C-66 to NgR. […] Cell area, number of attached cells and neurite length were measured using the linageexpress machine and software (Axon Instrument).

In a further experiment the test system is COS-7 cells. Description: Fibroblast spreading assay on dried GST fusion protein. Type of experiment: cell-based. The settings on record: GST fusion protein presented as dried substrate. As for the experimental part:
FIG. 2A. Effects of Amino-Nogo fragments on fibroblast spreading and neurite outgrowth. Different effects of Amino-Nogo fragments on fibroblast spreading. COS-7 cells were allowed to attach and spread on slides with spots coated with 50 ng of dried GST fusion protein as indicated and stained for F-actin. GST-A: fusion protein of GST and A fragment (FIG. 1) of Amino-Nogo. GST-A, GST-B, GST-Δ20, GST-B4 and GST-B4C: fusion protein of GST and A, B, Δ20, B4 or B4C fragment (FIG. 1) of Amino-Nogo, respectively.
FIG. 2B. COS-7 cell area for experiments as in (A) was measured and plotted.
FIG. 2C. COS-7 cells were allowed to attach and spread on 96 well dishes coated with dried GST fusion proteins as indicated. Number of attached cells were counted and plotted as a function of the amount of various proteins dried per well in a 96 well dish.
as §1, with “For fibroblast spreading assay, subconfluent COS-7 cells were then plated for 1 hour in serum containing medium before fixation and staining with rho damine-phalloidin.” left out

Experiment [1] addresses T1, human NgR1 alanine mutant 82, 179 (human, UniProt Q9BZR6 27-473).
T1 sequence: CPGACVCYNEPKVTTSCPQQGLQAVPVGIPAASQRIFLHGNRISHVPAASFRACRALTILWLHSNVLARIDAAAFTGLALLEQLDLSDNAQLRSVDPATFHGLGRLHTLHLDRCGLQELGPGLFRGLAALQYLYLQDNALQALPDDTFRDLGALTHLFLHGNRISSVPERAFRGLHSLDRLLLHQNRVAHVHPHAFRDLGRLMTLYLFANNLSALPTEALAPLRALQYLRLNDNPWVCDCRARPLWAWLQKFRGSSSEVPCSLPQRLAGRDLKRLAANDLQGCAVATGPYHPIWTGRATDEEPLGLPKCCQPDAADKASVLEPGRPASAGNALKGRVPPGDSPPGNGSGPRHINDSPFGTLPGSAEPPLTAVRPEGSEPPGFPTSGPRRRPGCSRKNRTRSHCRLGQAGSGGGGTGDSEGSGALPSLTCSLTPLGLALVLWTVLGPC
Description: AP-ligand binding, COS-7.

For experiment [2], the target named is T2, human NgR1 alanine mutant 133, 136 (human, UniProt Q9BZR6 27-473).
T2 sequence: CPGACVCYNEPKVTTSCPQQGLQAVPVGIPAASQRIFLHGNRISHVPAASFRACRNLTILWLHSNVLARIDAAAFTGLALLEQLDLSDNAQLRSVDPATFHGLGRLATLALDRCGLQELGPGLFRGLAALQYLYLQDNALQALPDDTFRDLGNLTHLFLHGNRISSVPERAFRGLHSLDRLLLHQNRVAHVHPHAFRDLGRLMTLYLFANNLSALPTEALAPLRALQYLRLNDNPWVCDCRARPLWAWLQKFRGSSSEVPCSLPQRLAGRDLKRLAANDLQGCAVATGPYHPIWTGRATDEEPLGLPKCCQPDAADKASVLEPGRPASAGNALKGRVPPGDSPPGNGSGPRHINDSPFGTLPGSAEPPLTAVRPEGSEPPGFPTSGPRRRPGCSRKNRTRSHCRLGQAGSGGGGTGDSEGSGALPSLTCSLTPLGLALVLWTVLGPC
Description: AP-ligand binding, COS-7.

Experiment [3] deals with T3, human NgR1 alanine mutant 182, 186 (human, UniProt Q9BZR6 27-473).
T3 sequence: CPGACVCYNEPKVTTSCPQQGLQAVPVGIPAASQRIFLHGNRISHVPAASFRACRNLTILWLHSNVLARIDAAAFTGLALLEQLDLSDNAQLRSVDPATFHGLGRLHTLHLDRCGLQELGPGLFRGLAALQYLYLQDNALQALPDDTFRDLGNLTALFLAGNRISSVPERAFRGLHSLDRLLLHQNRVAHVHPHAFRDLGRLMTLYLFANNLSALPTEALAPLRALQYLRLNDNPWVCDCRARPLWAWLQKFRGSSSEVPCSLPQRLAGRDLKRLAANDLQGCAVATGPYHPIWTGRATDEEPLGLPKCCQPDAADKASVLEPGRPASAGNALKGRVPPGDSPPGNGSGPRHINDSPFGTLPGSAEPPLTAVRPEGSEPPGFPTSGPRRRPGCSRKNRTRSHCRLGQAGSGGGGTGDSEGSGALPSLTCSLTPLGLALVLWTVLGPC
Description: AP-ligand binding, COS-7.

The target of experiment [4] is T4, human NgR1 alanine mutant 232, 234 (human, UniProt Q9BZR6 27-473).
T4 sequence: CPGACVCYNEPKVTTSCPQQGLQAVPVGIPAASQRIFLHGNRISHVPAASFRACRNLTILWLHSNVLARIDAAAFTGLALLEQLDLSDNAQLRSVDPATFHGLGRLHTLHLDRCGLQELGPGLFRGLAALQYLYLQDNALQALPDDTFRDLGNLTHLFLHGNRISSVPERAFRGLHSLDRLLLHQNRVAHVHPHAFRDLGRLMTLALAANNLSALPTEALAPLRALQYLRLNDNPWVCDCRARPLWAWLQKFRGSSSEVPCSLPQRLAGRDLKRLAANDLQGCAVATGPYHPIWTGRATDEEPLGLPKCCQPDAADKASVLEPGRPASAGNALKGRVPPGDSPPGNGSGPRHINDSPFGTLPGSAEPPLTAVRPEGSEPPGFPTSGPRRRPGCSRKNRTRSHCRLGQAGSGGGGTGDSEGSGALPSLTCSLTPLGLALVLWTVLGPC
The experiment is described as follows: AP-ligand binding, COS-7.

In experiment [5] the target is T5, human NgR1 alanine mutant 158, 160 (human, UniProt Q9BZR6 27-473).
T5 sequence: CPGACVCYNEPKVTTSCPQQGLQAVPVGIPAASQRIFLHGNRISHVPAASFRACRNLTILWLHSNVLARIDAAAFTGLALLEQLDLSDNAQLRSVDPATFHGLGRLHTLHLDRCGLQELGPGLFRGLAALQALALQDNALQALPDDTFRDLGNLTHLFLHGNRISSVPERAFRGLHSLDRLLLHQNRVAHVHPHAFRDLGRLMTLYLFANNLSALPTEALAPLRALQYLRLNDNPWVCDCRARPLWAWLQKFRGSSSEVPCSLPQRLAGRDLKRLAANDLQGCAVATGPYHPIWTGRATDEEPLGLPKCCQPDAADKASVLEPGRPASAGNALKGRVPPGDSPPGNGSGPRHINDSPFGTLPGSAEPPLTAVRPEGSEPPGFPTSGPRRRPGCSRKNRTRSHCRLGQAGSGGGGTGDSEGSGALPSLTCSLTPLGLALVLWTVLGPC
Description: AP-ligand binding, COS-7.

Experiment [6] has as its target T6, human NgR1 alanine mutant 163 (human, UniProt Q9BZR6 27-473).
T6 sequence: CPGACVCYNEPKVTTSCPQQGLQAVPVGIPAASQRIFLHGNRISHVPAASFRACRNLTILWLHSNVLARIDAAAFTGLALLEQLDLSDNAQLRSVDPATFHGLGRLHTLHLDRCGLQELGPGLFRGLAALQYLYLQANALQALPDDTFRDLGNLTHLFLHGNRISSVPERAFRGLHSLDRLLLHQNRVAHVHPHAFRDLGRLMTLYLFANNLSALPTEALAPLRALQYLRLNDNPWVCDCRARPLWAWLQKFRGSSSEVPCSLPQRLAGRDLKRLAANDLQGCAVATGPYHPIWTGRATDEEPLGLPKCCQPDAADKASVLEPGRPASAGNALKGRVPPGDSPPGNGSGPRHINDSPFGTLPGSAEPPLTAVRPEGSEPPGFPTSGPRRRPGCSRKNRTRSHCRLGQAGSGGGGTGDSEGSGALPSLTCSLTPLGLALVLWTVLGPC
The experiment is described as follows: AP-ligand binding, COS-7.

Consider “biotin-IFSAELSKTSVVDLLYWRDIKKTGGRIYKGVIQAIQKSDEGHP FRAYLESEVAISEE [24-32 fusion peptide]”, for which the “axon outgrowth from DRG neurons” value in the experiment with E13 chick DRG neurons (500 pmol of dried biotinylated peptide per well) is given as “potently inhibited axon outgrowth”.

Turning to “Biotin-IFSAELSKTSVVDLLYWRDIKKTG [carboxyl 24 aa segment of Amino-Nogo-A]”, the “effect on Nogo-66 action on neurite outgrowth” value with E13 chick DRG neurons (biotinylated peptide, FIGS. 6C and 6D) is given as “does not block or enhance Nogo-66 action on neurite outgrowth”.

B1: B fragment of Amino-Nogo: fusion protein of GST and B fragment of Amino-Nogo (protein, UniProt Q9NQC3 622-1018, looked up, fragment)
chain: SAVPSAGASVIQPSSSPLEASSVNYESIKHEPENPPPYEEAMSVSLKKVSGIKEEIKEPENINAALQETEAPYISIACDLIKETKLSAEPAPDFSDYSEMAKVEQPVPDHSELVEDSSPDSEPVDLFSDDSIPDVPQKQDETVMLVKESLTETSFESMIEYENKEKLSALPPEGGKPYLESFKLSLDNTKDTLLPDEVSTLSKKEKIPLQMEELSTAVYSNDDLFISKEAQIRETETFSDSSPIEIIDEFPTLISSKTDSFSKLAREYTDLEVSHKSEIANAPDGAGSLPCTELPHDLSLKNIQPKVEEKISFSDDFSKNGSATSKVLLLPPDVSALATQAEIESIVKPKVLVKEAEKKLPSDTEKEDRSPSAIFSAELSKTSVVDLLYWRDIKKTG
modifications: GST fusion
On to B1, for which the “COS-7 cell attachment and spreading” value with COS-7 cells is listed as “active”.

B2: AP-fused Amino-Nogo fragment B4C (a.a. 950-1018) (ligand)
chain: LLPPDVSALATQAEIESIVKPKVLVKEAEKKLPSDTEKEDRSPSAIFSAELSKTSVVDLLYWRDIKKTG
notes: also called AmNg B4C; AP-B4C; not shown: alkaline phosphatase (AP), vector pcAP6
Consider B2, for which the binding result in experiment [1], in experiment [2], in experiment [3], in experiment [4], in experiment [5] and in experiment [6] was “no binding” in each case.

B3: AP-Nogo-66 (ligand, UniProt Q9NQC3 1055-1120, looked up)
chain: RIYKGVIQAIQKSDEGHPFRAYLESEVAISEELVQKYSNSALGHVNCTIKELRRLFLVDDLVDSLK
notes: domain: Nogo-66; construct described elsewhere (Fournier 2001); also called AP-Ng66; Ng66; not shown: alkaline phosphatase (AP); construct described elsewhere
Take B3: the binding result in experiment [1], in experiment [2], in experiment [3], in experiment [4], in experiment [5] and in experiment [6] was “no binding” in each case.
